Results: patent US20030165995A1 (Takeda / Millennium, published 2003)

Tests used:
[1] = molecular target: T1, CCR6 expressed on transfected L1.2 cells (UniProt P51684 1-374, limits assumed); test: 125I-labeled SExCkine binding to receptor transfectants
T1 construct: whole, on cells
T1 sequence (looked up): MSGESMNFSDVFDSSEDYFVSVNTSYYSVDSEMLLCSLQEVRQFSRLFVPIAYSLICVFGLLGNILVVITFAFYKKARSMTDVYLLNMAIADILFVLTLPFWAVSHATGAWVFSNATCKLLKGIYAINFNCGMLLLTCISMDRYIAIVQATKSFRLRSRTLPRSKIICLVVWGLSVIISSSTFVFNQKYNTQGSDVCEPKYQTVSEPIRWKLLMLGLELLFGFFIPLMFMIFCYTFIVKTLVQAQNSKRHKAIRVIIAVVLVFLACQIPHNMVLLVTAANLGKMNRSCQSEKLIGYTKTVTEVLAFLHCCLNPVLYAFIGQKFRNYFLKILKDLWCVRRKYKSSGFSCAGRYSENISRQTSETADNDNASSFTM

[2] = molecular target: T2, CCR7 expressed on transfected L1.2 cells (UniProt P32248 25-378, limits assumed); test: as above
T2 construct: whole, on cells
T2 sequence (looked up): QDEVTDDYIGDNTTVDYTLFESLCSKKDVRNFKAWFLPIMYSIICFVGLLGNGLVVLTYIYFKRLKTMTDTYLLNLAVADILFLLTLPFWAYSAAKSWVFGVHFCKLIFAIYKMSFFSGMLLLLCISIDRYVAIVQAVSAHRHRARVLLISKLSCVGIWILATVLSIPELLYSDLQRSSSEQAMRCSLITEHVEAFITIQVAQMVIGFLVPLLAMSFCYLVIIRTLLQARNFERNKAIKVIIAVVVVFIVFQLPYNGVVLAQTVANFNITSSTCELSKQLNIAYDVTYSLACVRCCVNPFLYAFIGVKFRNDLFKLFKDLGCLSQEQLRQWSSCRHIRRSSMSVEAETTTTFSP

[3] = molecular target: T3, human Bonzo with N-terminal hemagglutinin (HA) epitope, expressed on transfected L1.2 cells (Bonzo/L1.2 cells) (human, UniProt O00574 1-342); test: Scatchard analysis of 125I-labeled SExCkine binding to Bonzo/L1.2 cells
T3 construct: also called CXCR6; STRL33
T3 sequence: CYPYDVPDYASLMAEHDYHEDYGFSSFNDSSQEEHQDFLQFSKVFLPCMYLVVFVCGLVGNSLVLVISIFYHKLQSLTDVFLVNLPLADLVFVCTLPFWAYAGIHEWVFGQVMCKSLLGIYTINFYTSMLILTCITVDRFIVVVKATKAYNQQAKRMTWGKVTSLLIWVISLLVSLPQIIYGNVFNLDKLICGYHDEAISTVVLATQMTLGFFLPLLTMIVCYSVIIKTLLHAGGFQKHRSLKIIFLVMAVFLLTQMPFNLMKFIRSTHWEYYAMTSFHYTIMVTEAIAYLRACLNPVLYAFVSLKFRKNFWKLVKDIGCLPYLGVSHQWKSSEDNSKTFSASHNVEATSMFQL
Experimental: (§1) The amount of ¹²⁵I-labeled SExCkine (CXCL16) that bound to Bonzo/L1.2 cells was determined by scintillation counting, and % inhibition of binding (0% inhibition is the amount of binding in the absence of unlabeled SExCkine (CXCL16)) was calculated. […] FIG. 43B depicts the Scatchard analysis of the binding data.
(§2) Exponentially-growing Bonzo/L1.2 transfectants were counted on the day of the assay and were resuspended in binding assay buffer (BAB) (10 mM HEPES/1 mM CaCl₂/5 mM MgCl₂/0.5% BSA/0.05% Na Azide) at a density of 2.5×10⁶ cells/mL. Purified recombinant SExCkine (CXCL16) was labeled with I¹²⁵ using a sodium iodine method (Amersham, Arlington Heights, Ill.) and was diluted to 4 nM in BAB. Cold (unlabeled) SExCkine (in PBS at 5.3 μM) was diluted for competition in BAB to 0.4 nM, 2 nM, 4 nM, 20 nM, 40 nM, and 400 nM. […] For calculation of total I¹²⁵ input, 50 μL of cells was added to 25 μL of I¹²⁵I-labeled SExCkine and 25 μL BAB. All tubes were incubated for 1 hour at room temperature, after which time the cells were spun down at 3500 rpm and washed five times in BAB+0.5 M NaCl. After the final wash, the cell pellet was resuspended in 100 μL of wash buffer and the I¹²⁵ counts were calculated using a Cobra II auto-gamma scintillation counter (Packard, Downers Grove, Ill.) along with the total input sample. Binding data was calculated using a program written in Excel.

[4] = molecular target: T3, human Bonzo with N-terminal …; test: competition with 1 nM 125I-labeled SExCkine for binding to Bonzo/L1.2 cells, gamma counting
Experimental: as §1, §2

B1: purified recombinant His-tagged SExCkine (entire predicted extracellular domain, amino acid residues 1 to 202 of SEQ ID NO:4) (ligand)
chain: NEGSVTGSCYCGKRISSDSPPSVQFMNRLRKHLRAYHRCLYYTRFQLLSWSVCGGNKDPWVQELMSCLDLKECGHAYSGIVAHQKHLLPTSPPISQASEGASSDIHTPAQMLLSTLQSTQRPTLPVGSLSSDKELTRPNETTIHTAGHSLAVGPEAGENQKQPEKNAGPTART
modifications: heavily glycosylated; iodinated with 125I where used as tracer
notes: Expressed in 293T cells, purified on wheat germ agglutinin and NiNTA; also called purified recombinant SExCkine (CXCL16); recombinant His-tagged SExCkine protein; not shown: C-terminal His tag from the pEF-His vector
What does the source list for B1?
binding result [1]: no binding; binding result [2]: no binding; Kd [3]: 1 nM; IC50 [4]: 1 nM
